The RNAGym collection of RNA variant scans (doi:10.1073/pnas.2313332121)
This sample holds only a part of the variants without activity.

B1: TPR 5TU (parent)
chain: GGAUCUUCUCGAUCUAACAAAAAAGACAAAUCUGCCACAAAGCUUGAGAGCAUCUUCGGAUGCAGAGGCGGCAGCCUUCGGUGGCGCGAUAGCGCCAACGUUCUCAACUAUGACACGCAAAACGCGUGCUCCGUUGAAUGGAGUUUAUCAUG

Variants of: B1
Assay: polymerase ribozyme fitness, log enrichment relative to wild type (log ratio); higher = more active; in vitro selection for triplet polymerase activity
How it was run: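 Streptavidin-bead capture of gel-excised extended constructs, followed by RT-PCR, closed a single triplicate in vitro selection round. That round began by annealing PCR-built, transcribed mutant libraries of each subunit of a heterodimeric triplet polymerase ribozyme with a biotinylated primer, the partner subunit and triplets, then incubating them frozen at −7 °C. After Illumina sequencing of inputs and outputs, genotypes needed ≥10 input reads and ≥1 read per output. Fitness is the base-2 logarithm of genotype enrichment over wild-type enrichment, using inverse-variance-weighted replicate averages.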

U9C A40C U45A G65C C85A U111G A113U C118G and U9C C27U G84U G126U cannot be ordered by “polymerase ribozyme fitness (log ratio)” value: ≤ -4.2 for the first, ≤ -4.2 for the second.

U7G C57U G59C G88A C93A A115C and C8U C93U C99G cannot be ordered by “polymerase ribozyme fitness (log ratio)” value: ≤ -4.2 for the first, ≤ -4.2 for the second.

U9A C10G G48U C63G C85A A137G G141U and U7A C14G A29G C35G C36A G74A A91U C96A cannot be ordered by “polymerase ribozyme fitness (log ratio)” value: ≤ -4.2 for the first, ≤ -4.2 for the second.

U7G U15G A21C A39G U45G G92U U127C and U9C C18U G71C U82A C85G U146G A150C cannot be ordered by “polymerase ribozyme fitness (log ratio)” value: ≤ -4.2 for the first, ≤ -4.2 for the second.

U7G A37G C38U G59U A60U G94U C108U and C10A A23U G83U cannot be ordered by “polymerase ribozyme fitness (log ratio)” value: ≤ -4.2 for the first, ≤ -4.2 for the second.

Going from C8U C35U A41C G58C G68U G86U C114A G140A to C10A A22U A37C U134C A142G, the “polymerase ribozyme fitness (log ratio)” value rises from ≤ -4.2 to -4.

U9A C149G and C8A C116U U135C A150G cannot be ordered by “polymerase ribozyme fitness (log ratio)” value: ≤ -4.2 for the first, ≤ -4.2 for the second.

First: C8U A52G
Second: C8A C85A
The “polymerase ribozyme fitness (log ratio)” value of the first is lower: -3.63 for the first, -3.27 for the second.

C8G C36U C114U A115G U135G A150C and C10A A47G A64G G81U G84U cannot be ordered by “polymerase ribozyme fitness (log ratio)” value: ≤ -4.2 for the first, ≤ -4.2 for the second.

U9A U31G C57U G74C G92C and C8G U82G G84U C85U A107C cannot be ordered by “polymerase ribozyme fitness (log ratio)” value: ≤ -4.2 for the first, ≤ -4.2 for the second.

First: U9G G58C C93G C118U G143A U144C
Second: C8U A30U C32U A64G C76A A97G A107U C108U A110G C116A
The “polymerase ribozyme fitness (log ratio)” value of the first is lower: ≤ -4.2 for the first, -4.12 for the second.

Compared with U7A U45G A49C G50C C87U C96A, C8A C14G is higher in “polymerase ribozyme fitness (log ratio)” value: ≤ -4.2 for the first, -3.51 for the second.

First: C10A
Second: U9G C43A C54A C75G C93G U146A
The “polymerase ribozyme fitness (log ratio)” value of the first is higher: -2.83 for the first, ≤ -4.2 for the second.

C8G A12G C35U C75A G86U U109G U127G A137G and U9A A21G A41C G48U A49C U111G C131A cannot be ordered by “polymerase ribozyme fitness (log ratio)” value: ≤ -4.2 for the first, ≤ -4.2 for the second.

U9G G74A A91G C93U G141U and C8U C10A A23C G59U G88U cannot be ordered by “polymerase ribozyme fitness (log ratio)” value: ≤ -4.2 for the first, ≤ -4.2 for the second.

U7G A19C A40G U56A A120G A150C and C10A A29C U44G G58A A60G A97U G141C cannot be ordered by “polymerase ribozyme fitness (log ratio)” value: ≤ -4.2 for the first, ≤ -4.2 for the second.

C8G C63U G68A G92A A107U A142G and C8G A41U U55G U56A G65A G70C U78A G81A C93A A122U cannot be ordered by “polymerase ribozyme fitness (log ratio)” value: ≤ -4.2 for the first, ≤ -4.2 for the second.

C8U A26U U44A C85U A115U C118A G133U and U7G A17C A24U A52G A64G C72G C85U G88U G92U C93G A119U cannot be ordered by “polymerase ribozyme fitness (log ratio)” value: ≤ -4.2 for the first, ≤ -4.2 for the second.

First: U9C C10G
Second: C8A A22U A41C C93A G136C
The “polymerase ribozyme fitness (log ratio)” value of the first is higher: -4.15 for the first, ≤ -4.2 for the second.

U9A C76A C85U G100C U104G A115U and U9C A24C A40C C93A C105G G141C cannot be ordered by “polymerase ribozyme fitness (log ratio)” value: ≤ -4.2 for the first, ≤ -4.2 for the second.

C8G U13G A40C U77A G94A A97C C99U A113G G117U U139G U144G and C8U G50U G71C C85G cannot be ordered by “polymerase ribozyme fitness (log ratio)” value: ≤ -4.2 for the first, ≤ -4.2 for the second.
